Three molecules from doi:10.1101/2023.03.10.532066 can be followed below.

Data set [1] deals with T1, GLK2 (Arabidopsis thaliana, UniProt Q9FFH0 1-386).
T1 sequence: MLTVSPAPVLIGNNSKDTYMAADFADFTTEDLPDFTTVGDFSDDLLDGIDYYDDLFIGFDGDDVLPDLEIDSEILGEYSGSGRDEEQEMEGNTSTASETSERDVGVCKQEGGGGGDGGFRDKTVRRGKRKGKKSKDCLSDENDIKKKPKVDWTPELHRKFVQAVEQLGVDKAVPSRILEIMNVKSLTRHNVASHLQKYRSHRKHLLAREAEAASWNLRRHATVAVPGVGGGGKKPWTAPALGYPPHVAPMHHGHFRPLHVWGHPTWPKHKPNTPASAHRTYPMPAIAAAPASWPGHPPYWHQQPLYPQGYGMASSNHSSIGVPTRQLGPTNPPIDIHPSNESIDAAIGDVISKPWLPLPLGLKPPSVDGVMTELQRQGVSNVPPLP
The data set is described as follows: competition.

Data set [2] deals with T1, GLK2. The data set is described as follows: EMSA.

B1: pDFR-p1m (mpDFR-D-EMSA) (dsDNA)
DNA 1: ATACCAACACTAAAAAAAAAAAAAAAAAAACATAGAAGAAGAGAGCCAC
DNA 2: GTGGCTCTCTTCTTCTATGTTTTTTTTTTTTTTTTTTTAGTGTTGGTAT
B1: in the data set with GLK2 [1], the binding result was “no binding”.

B2: TTG1 probe (pTTG1-A-EMSA) (dsDNA)
DNA 1: TCTTTTTTGTCTTCTTATGTGATATCAAATTTTATGATCT
DNA 2: AGATCATAAAATTTGATATCACATAAGAAGACAAAAAAGA
Turning to B2, in the data set with GLK2 [2], the binding result is “binds”.

B3: pTTG1m (mpTTG1-A-EMSA) (dsDNA)
DNA 1: TCTTTTTTGTCTTCTTATGTAAAAAAAAATTTTATGATCT
DNA 2: AGATCATAAAATTTTTTTTTACATAAGAAGACAAAAAAGA
Take B3: the binding result with GLK2 [2] was “no binding”.
